Data published in paper doi:10.1101/459487 (bioRxiv, 2018).

How the values were obtained:
[1] = target: GST-EFCAB9^Mut2 (D72N/E160Q) (mouse, UniProt Q9DAM2 1-216, D72N | E160Q); assay: pull-down
[2] = target: full-length GST-EFCAB9 (mouse) (mouse, UniProt Q9DAM2 1-216); assay: pull-down
Sequence of full-length GST-EFCAB9 (mouse) (Q9DAM2 whole entry): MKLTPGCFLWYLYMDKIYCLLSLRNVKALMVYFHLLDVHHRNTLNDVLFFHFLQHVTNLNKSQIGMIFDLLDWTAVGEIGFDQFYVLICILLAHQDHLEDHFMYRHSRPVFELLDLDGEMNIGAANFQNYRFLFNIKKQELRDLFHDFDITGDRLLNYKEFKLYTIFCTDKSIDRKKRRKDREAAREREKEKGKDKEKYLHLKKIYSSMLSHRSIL

Sequence of GST-EFCAB9^Mut2 (D72N/E160Q) (Q9DAM2 whole entry D72N/E160Q): as the sequence (Q9DAM2 whole entry) above, with D72N, E160Q counted along it

binding result [1]: binds | binding result [2]: binds
B1: 6xHis-tagged mouse CatSperζ fused to GB1 (natural protein)
chain: MEESVKPVPKHANHRRSSVRSSLYGDVRDLWSTATMSTANVSVSDVCEDFDEEGKSVRNRIRKYSQTISIRDSLNLEPEEIQQQARRELELCHGRSLEHGEDHEESETSLASSTSESLIFSLWKPHRTYWTEQQNRLPLPLMELMETEVLDILKKALITYRSTIGRNHFMTKELQGYIEGIRKRRNKRLYFLDQ
